# Reference: PMC11091121, “The structural basis for 2′−5′/3′−5′-cGAMP synthesis by cGAS”
# B1: 18-bp palindromic dsDNA (dsDNA)
# DNA 1: ATCTGTACATGTACAGAT
# DNA 2: ATCTGTACATGTACAGAT
# Legend:
# WT-mcGAScat = WT-mcGAScat (mouse, UniProt Q8C6L5 147-507); test: crystal structure; 2'-dATP; FA: 5 nM FAM-dsDNA, as previously reported (reaction buffer likely 25 mM Tris-acetate pH 7.4, 125 mM KAc, 5 mM MgAc2, 1 mM TCEP, 5% glycerol, 25 C); crystals: 0.2 M ammonium acetate, 32% MPD, 0.1 M Bis-Tris pH 6.5, 4 C; conditions: protein: recombinant; tags: none left (N-terminal 6xHis-MBP removed by TEV); chain copies: 2; blunt; self-complementary, 2 copies of the strand
# QN-mcGAScat = QN-mcGAScat (mouse, UniProt Q8C6L5 147-507, E211Q;D213N); test: crystal structure; ATP, GTP, Mg2+; FA: 5 nM FAM-dsDNA, as previously reported (reaction buffer likely 25 mM Tris-acetate pH 7.4, 125 mM KAc, 5 mM MgAc2, 1 mM TCEP, 5% glycerol, 25 C); crystals: 0.2 M ammonium acetate, 32% MPD, 0.1 M Bis-Tris pH 6.5, 4 C; conditions: protein: recombinant; tags: none left (N-terminal 6xHis-MBP removed by TEV); chain copies: 2; blunt; self-complementary, 2 copies of the strand
# Sequence of QN-mcGAScat (Q8C6L5 147-507 E211Q/D213N): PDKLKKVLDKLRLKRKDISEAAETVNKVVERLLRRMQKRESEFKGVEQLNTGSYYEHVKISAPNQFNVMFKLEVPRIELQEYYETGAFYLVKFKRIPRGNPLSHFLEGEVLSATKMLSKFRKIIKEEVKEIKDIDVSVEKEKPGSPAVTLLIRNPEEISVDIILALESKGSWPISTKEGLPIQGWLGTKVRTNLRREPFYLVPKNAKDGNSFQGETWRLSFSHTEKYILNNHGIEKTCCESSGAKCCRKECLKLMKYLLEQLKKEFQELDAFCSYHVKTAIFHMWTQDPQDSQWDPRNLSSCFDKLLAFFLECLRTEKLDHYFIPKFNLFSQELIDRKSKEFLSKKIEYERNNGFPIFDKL
# Sequence of WT-mcGAScat (Q8C6L5 147-507): as the sequence (Q8C6L5 147-507 E211Q/D213N) above, with Q65E, N67D counted along it
binder,measurement,setting,value
B1,binding result,WT-mcGAScat,binds
same,binding result,QN-mcGAScat,binds
